Kd data for one substance are collected here from publication PMC2928020.

pKd: −log10 of the molar value.

The target in this assay is FITC-labeled alanine-extended version of the β2AR C-terminal peptide (TNDSLLA) (human). Description: fluorescence polarisation. For orientation: Polarisation of emitted light reports the rotation of a fluorescent probe.

By pKd is commonly meant −log10 of the Kd, conventionally taken in molar units. A low value points to a high Kd.

In the case of “SNX27 PDZ domain, wild type (residues 39-131 of rat SNX27) (from UniProt Q8K4V4 39-131) (domain or fragment)”, the negative-log Kd (pKd) is < 4.00.
